The record followed here is article PMC9302676.

By Km is commonly meant the substrate concentration at which the rate is half of its maximum.

Substrate in the data set: CC1=CC(=O)CC(C)(C)C1
Description: purified protein. The following applies: 1 μM enzyme, 1 mM NADPH, KPi 50 mM pH 7.4, 2-50 mM substrate, 30.0 °C.

B1: P450 BM3 (CYP102A1) (Priestia megaterium NBRC 15308 = ATCC 14581) (protein)
chain: MTIKEMPQPKTFGELKNLPLLNTDKPVQALMKIADELGEIFKFEAPGRVTRYLSSQRLIKEACDESRFDKNLSQALKFVRDFAGDGLFTSWTHEKNWKKAHNILLPSFSQQAMKGYHAMMVDIAVQLVQKWERLNADEHIEVPEDMTRLTLDTIGLCGFNYRFNSFYRDQPHPFITSMVRALDEAMNKLQRANPDDPAYDENKRQFQEDIKVMNDLVDKIIADRKASGEQSDDLLTHMLNGKDPETGEPLDDENIRYQIITFLIAGHETTSGLLSFALYFLVKNPHVLQKAAEEAARVLVDPVPSYKQVKQLKYVGMVLNEALRLWPTAPAFSLYAKEDTVLGGEYPLEKGDELMVLIPQLHRDKTIWGDDVEEFRPERFENPSAIPQHAFKPFGNGQRACIGQQFALHEATLVLGMMLKHFDFEDHTNYELDIKETLTLKPEGFVVKAKSKKIPLGGIPSPSTEQSAKKVRKKAENAHNTPLLVLYGSNMGTAEGTARDLADIAMSKGFAPQVATLDSHAGNLPREGAVLIVTASYNGHPPDNAKQFVDWLDQASADEVKGVRYSVFGCGDKNWATTYQKVPAFIDETLAAKGAENIADRGEADASDDFEGTYEEWREHMWSDVAAYFNLDIENSEDNKSTLSLQFVDSAADMPLAKMHGAFSTNVVASKELQQPGSARSTRHLEIELPKEASYQEGDHLGVIPRNYEGIVNRVTARFGLDASQQIRLEAEEEKLAHLPLAKTVSVEELLQYVELQDPVTRTQLRAMAAKTVCPPHKVELEALLEKQAYKEQVLAKRLTMLELLEKYPACEMKFSEFIALLPSIRPRYYSISSSPRVDEKQASITVSVVSGEAWSGYGEYKGIASNYLAELQEGDTITCFISTPQSEFTLPKDPETPLIMVGPGTGVAPFRGFVQARKQLKEQGQSLGEAHLYFGCRSPHEDYLYQEELENAQSEGIITLHTAFSRMPNQPKTYVQHVMEQDGKKLIELLDQGAHFYICGDGSQMAPAVEATLMKSYADVHQVSEADARLWLQQLEEKGRYAKDVWAG
As to B1, the Km was found to be 10.95 ± 0.80 mmol/L.

B2: P450 BM3 (CYP102A1) (Priestia megaterium NBRC 15308 = ATCC 14581; N320L/T412V/T437A) (protein)
chain: MTIKEMPQPKTFGELKNLPLLNTDKPVQALMKIADELGEIFKFEAPGRVTRYLSSQRLIKEACDESRFDKNLSQALKFVRDFAGDGLFTSWTHEKNWKKAHNILLPSFSQQAMKGYHAMMVDIAVQLVQKWERLNADEHIEVPEDMTRLTLDTIGLCGFNYRFNSFYRDQPHPFITSMVRALDEAMNKLQRANPDDPAYDENKRQFQEDIKVMNDLVDKIIADRKASGEQSDDLLTHMLNGKDPETGEPLDDENIRYQIITFLIAGHETTSGLLSFALYFLVKNPHVLQKAAEEAARVLVDPVPSYKQVKQLKYVGMVLLEALRLWPTAPAFSLYAKEDTVLGGEYPLEKGDELMVLIPQLHRDKTIWGDDVEEFRPERFENPSAIPQHAFKPFGNGQRACIGQQFALHEAVLVLGMMLKHFDFEDHTNYELDIKEALTLKPEGFVVKAKSKKIPLGGIPSPSTEQSAKKVRKKAENAHNTPLLVLYGSNMGTAEGTARDLADIAMSKGFAPQVATLDSHAGNLPREGAVLIVTASYNGHPPDNAKQFVDWLDQASADEVKGVRYSVFGCGDKNWATTYQKVPAFIDETLAAKGAENIADRGEADASDDFEGTYEEWREHMWSDVAAYFNLDIENSEDNKSTLSLQFVDSAADMPLAKMHGAFSTNVVASKELQQPGSARSTRHLEIELPKEASYQEGDHLGVIPRNYEGIVNRVTARFGLDASQQIRLEAEEEKLAHLPLAKTVSVEELLQYVELQDPVTRTQLRAMAAKTVCPPHKVELEALLEKQAYKEQVLAKRLTMLELLEKYPACEMKFSEFIALLPSIRPRYYSISSSPRVDEKQASITVSVVSGEAWSGYGEYKGIASNYLAELQEGDTITCFISTPQSEFTLPKDPETPLIMVGPGTGVAPFRGFVQARKQLKEQGQSLGEAHLYFGCRSPHEDYLYQEELENAQSEGIITLHTAFSRMPNQPKTYVQHVMEQDGKKLIELLDQGAHFYICGDGSQMAPAVEATLMKSYADVHQVSEADARLWLQQLEEKGRYAKDVWAG
B2: the Km turned out to be 8.29 ± 0.77 mmol/L.

B3: P450 BM3 (CYP102A1) (Priestia megaterium NBRC 15308 = ATCC 14581; N320L/T437A) (protein)
chain: MTIKEMPQPKTFGELKNLPLLNTDKPVQALMKIADELGEIFKFEAPGRVTRYLSSQRLIKEACDESRFDKNLSQALKFVRDFAGDGLFTSWTHEKNWKKAHNILLPSFSQQAMKGYHAMMVDIAVQLVQKWERLNADEHIEVPEDMTRLTLDTIGLCGFNYRFNSFYRDQPHPFITSMVRALDEAMNKLQRANPDDPAYDENKRQFQEDIKVMNDLVDKIIADRKASGEQSDDLLTHMLNGKDPETGEPLDDENIRYQIITFLIAGHETTSGLLSFALYFLVKNPHVLQKAAEEAARVLVDPVPSYKQVKQLKYVGMVLLEALRLWPTAPAFSLYAKEDTVLGGEYPLEKGDELMVLIPQLHRDKTIWGDDVEEFRPERFENPSAIPQHAFKPFGNGQRACIGQQFALHEATLVLGMMLKHFDFEDHTNYELDIKEALTLKPEGFVVKAKSKKIPLGGIPSPSTEQSAKKVRKKAENAHNTPLLVLYGSNMGTAEGTARDLADIAMSKGFAPQVATLDSHAGNLPREGAVLIVTASYNGHPPDNAKQFVDWLDQASADEVKGVRYSVFGCGDKNWATTYQKVPAFIDETLAAKGAENIADRGEADASDDFEGTYEEWREHMWSDVAAYFNLDIENSEDNKSTLSLQFVDSAADMPLAKMHGAFSTNVVASKELQQPGSARSTRHLEIELPKEASYQEGDHLGVIPRNYEGIVNRVTARFGLDASQQIRLEAEEEKLAHLPLAKTVSVEELLQYVELQDPVTRTQLRAMAAKTVCPPHKVELEALLEKQAYKEQVLAKRLTMLELLEKYPACEMKFSEFIALLPSIRPRYYSISSSPRVDEKQASITVSVVSGEAWSGYGEYKGIASNYLAELQEGDTITCFISTPQSEFTLPKDPETPLIMVGPGTGVAPFRGFVQARKQLKEQGQSLGEAHLYFGCRSPHEDYLYQEELENAQSEGIITLHTAFSRMPNQPKTYVQHVMEQDGKKLIELLDQGAHFYICGDGSQMAPAVEATLMKSYADVHQVSEADARLWLQQLEEKGRYAKDVWAG
With B3, the Km came out at 10.09 ± 0.18 mmol/L.

B4: P450 BM3 (CYP102A1) (Priestia megaterium NBRC 15308 = ATCC 14581; N320L/T412V) (protein)
chain: MTIKEMPQPKTFGELKNLPLLNTDKPVQALMKIADELGEIFKFEAPGRVTRYLSSQRLIKEACDESRFDKNLSQALKFVRDFAGDGLFTSWTHEKNWKKAHNILLPSFSQQAMKGYHAMMVDIAVQLVQKWERLNADEHIEVPEDMTRLTLDTIGLCGFNYRFNSFYRDQPHPFITSMVRALDEAMNKLQRANPDDPAYDENKRQFQEDIKVMNDLVDKIIADRKASGEQSDDLLTHMLNGKDPETGEPLDDENIRYQIITFLIAGHETTSGLLSFALYFLVKNPHVLQKAAEEAARVLVDPVPSYKQVKQLKYVGMVLLEALRLWPTAPAFSLYAKEDTVLGGEYPLEKGDELMVLIPQLHRDKTIWGDDVEEFRPERFENPSAIPQHAFKPFGNGQRACIGQQFALHEAVLVLGMMLKHFDFEDHTNYELDIKETLTLKPEGFVVKAKSKKIPLGGIPSPSTEQSAKKVRKKAENAHNTPLLVLYGSNMGTAEGTARDLADIAMSKGFAPQVATLDSHAGNLPREGAVLIVTASYNGHPPDNAKQFVDWLDQASADEVKGVRYSVFGCGDKNWATTYQKVPAFIDETLAAKGAENIADRGEADASDDFEGTYEEWREHMWSDVAAYFNLDIENSEDNKSTLSLQFVDSAADMPLAKMHGAFSTNVVASKELQQPGSARSTRHLEIELPKEASYQEGDHLGVIPRNYEGIVNRVTARFGLDASQQIRLEAEEEKLAHLPLAKTVSVEELLQYVELQDPVTRTQLRAMAAKTVCPPHKVELEALLEKQAYKEQVLAKRLTMLELLEKYPACEMKFSEFIALLPSIRPRYYSISSSPRVDEKQASITVSVVSGEAWSGYGEYKGIASNYLAELQEGDTITCFISTPQSEFTLPKDPETPLIMVGPGTGVAPFRGFVQARKQLKEQGQSLGEAHLYFGCRSPHEDYLYQEELENAQSEGIITLHTAFSRMPNQPKTYVQHVMEQDGKKLIELLDQGAHFYICGDGSQMAPAVEATLMKSYADVHQVSEADARLWLQQLEEKGRYAKDVWAG
For B4, the Km is 17.67 ± 0.46 mmol/L.

B5: P450 BM3 (CYP102A1) (Priestia megaterium NBRC 15308 = ATCC 14581; T412V/T437A) (protein)
chain: MTIKEMPQPKTFGELKNLPLLNTDKPVQALMKIADELGEIFKFEAPGRVTRYLSSQRLIKEACDESRFDKNLSQALKFVRDFAGDGLFTSWTHEKNWKKAHNILLPSFSQQAMKGYHAMMVDIAVQLVQKWERLNADEHIEVPEDMTRLTLDTIGLCGFNYRFNSFYRDQPHPFITSMVRALDEAMNKLQRANPDDPAYDENKRQFQEDIKVMNDLVDKIIADRKASGEQSDDLLTHMLNGKDPETGEPLDDENIRYQIITFLIAGHETTSGLLSFALYFLVKNPHVLQKAAEEAARVLVDPVPSYKQVKQLKYVGMVLNEALRLWPTAPAFSLYAKEDTVLGGEYPLEKGDELMVLIPQLHRDKTIWGDDVEEFRPERFENPSAIPQHAFKPFGNGQRACIGQQFALHEAVLVLGMMLKHFDFEDHTNYELDIKEALTLKPEGFVVKAKSKKIPLGGIPSPSTEQSAKKVRKKAENAHNTPLLVLYGSNMGTAEGTARDLADIAMSKGFAPQVATLDSHAGNLPREGAVLIVTASYNGHPPDNAKQFVDWLDQASADEVKGVRYSVFGCGDKNWATTYQKVPAFIDETLAAKGAENIADRGEADASDDFEGTYEEWREHMWSDVAAYFNLDIENSEDNKSTLSLQFVDSAADMPLAKMHGAFSTNVVASKELQQPGSARSTRHLEIELPKEASYQEGDHLGVIPRNYEGIVNRVTARFGLDASQQIRLEAEEEKLAHLPLAKTVSVEELLQYVELQDPVTRTQLRAMAAKTVCPPHKVELEALLEKQAYKEQVLAKRLTMLELLEKYPACEMKFSEFIALLPSIRPRYYSISSSPRVDEKQASITVSVVSGEAWSGYGEYKGIASNYLAELQEGDTITCFISTPQSEFTLPKDPETPLIMVGPGTGVAPFRGFVQARKQLKEQGQSLGEAHLYFGCRSPHEDYLYQEELENAQSEGIITLHTAFSRMPNQPKTYVQHVMEQDGKKLIELLDQGAHFYICGDGSQMAPAVEATLMKSYADVHQVSEADARLWLQQLEEKGRYAKDVWAG
Consider B5, for which the Km was found to be 11.39 ± 0.84 mmol/L.
